The values that follow come from paper doi:10.1101/785121 (bioRxiv, 2020).

Changes are numbered by the printed parent chain. Names and notes keep the numbering of the source. Values joined by “and” are separate entries in the source; they are usually repeats but may differ in a detail not shown here. Identical values can stand only once. Like-named read-outs stand apart in the source and are kept apart here.

Data set [1] deals with Isotopically depleted, truncated, strepII-tagged R. rubrum encapsulated ferritin (wild type) (Rhodospirillum rubrum). The data set can be described thus: native MS.
Data set [2] has the same target. The data set can be described thus: native MS. This is another data set of the same source.
For data set [3] the target is unchanged. The experiment in a line: native MS. The source holds these as a separate data set.
The target is the same in data set [4]. The experiment in a line: native MS. This is another data set of the same source.
The target is the same in data set [5]. The data set can be described thus: native MS. This is another data set of the same source.
Data set [6] shares this target. The data set can be described thus: native MS. The source holds these as a separate data set.
Data set [7] concerns the molecule itself. The experiment in a line: native MS.
The data set “SEC” concerns the molecule itself. The experiment in a line: SEC. Background: In gel filtration, larger molecules generally elute earlier.
Data set [8] concerns the target T1, Rhodospirillum rubrum encapsulin (Rhodospirillum rubrum, UniProt Q2RVS0 1-280).
T1 sequence: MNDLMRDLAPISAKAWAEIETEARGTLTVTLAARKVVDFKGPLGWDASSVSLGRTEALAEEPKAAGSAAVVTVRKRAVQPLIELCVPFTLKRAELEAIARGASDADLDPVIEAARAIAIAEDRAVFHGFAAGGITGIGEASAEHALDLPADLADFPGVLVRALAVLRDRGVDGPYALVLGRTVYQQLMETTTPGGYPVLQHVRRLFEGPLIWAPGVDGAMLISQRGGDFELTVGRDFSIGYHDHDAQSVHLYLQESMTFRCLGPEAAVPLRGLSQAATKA
The experiment in a line: SEC.

Data set [9] deals with the molecule itself. The experiment in a line: native MS. The source holds these as a separate data set.
The data set “crystal structure” concerns the molecule itself. The experiment in a line: crystal structure.

As usually defined, the stoichiometry N is the number of molecules, sites or subunits per partner or assembly.

As for “Isotopically depleted, truncated, strepII-tagged R. rubrum encapsulated ferritin (wild type) (domain or fragment)”, the stoichiometry N stood at 10 in data set [1]; 4 in data set [2]; 2 in [3]; 10 in [4]; 10 in [5]; 2 in [6].

B1: Rhodospirillum rubrum encapsulated ferritin, wild type (natural protein)
chain: MAQSSNSTHEPLEVLKEETVNRHRAIVSVMEELEAVDWYDQRVDASTDPELTAILAHNRDEEKEHAAMTLEWLRRNDAKWAEHLRTYLFTEGPITAIEAADTAGEGSGGDAAKGATAQGDGSLGIGSLKGEAALARPPRL
As for B1, the “stoichiometry N” value in “native MS [7]” was 2; in “SEC”, 10 and 4. For the same molecule, in data set [8], the binding result was “binds”.

B2: Rhodospirillum rubrum encapsulated ferritin E34A variant (natural protein)
chain: B1 chain with E34A
Take B2: the “stoichiometry N” value in “native MS [9]” was 10; in “SEC”, 4 and 2. Besides, in data set [8], the binding result is recorded as “binds”.

B3: Rhodospirillum rubrum encapsulated ferritin W38A variant (natural protein)
chain: B1 chain with W38A
Consider B3, for which the binding result in data set [8] is “binds”.

B4: Rhodospirillum rubrum encapsulated ferritin E31A variant (natural protein)
chain: B1 chain with E31A
For the molecule B4, the “stoichiometry N” value is 10 in “native MS [9]”; 4 and 2 in “SEC”. Also, the binding result in data set [8] was “binds”.

B5: Rhodospirillum rubrum encapsulated ferritin W38G variant (natural protein)
chain: B1 chain with W38G
Consider B5, for which, in data set [8], the binding result is listed as “binds”.

B6: Truncated, C-terminally hexahistidine-tagged R. rubrum encapsulated ferritin E31A variant (domain or fragment)
chain: MAQSSNSTHEPLEVLKEETVNRHRAIVSVMAELEAVDWYDQRVDASTDPELTAILAHNRDEEKEHAAMTLEWLRRNDAKWAEHLRTYLFTEGPITA
Take B6: the “stoichiometry N” value in “crystal structure” came to 10.

B7: Truncated, C-terminally hexahistidine-tagged R. rubrum encapsulated ferritin E34A variant (domain or fragment)
chain: B6 chain with A31E, E34A
For B7, the “stoichiometry N” value in the data set “crystal structure” was determined as 10.
